The labels stand for the following.
B1: Zinc finger homeobox protein 4, residues 2562 to 2617; numbered along this chain, Q86UP3 (parent)
chain: RLRTTITPEQLEILYEKYLLDSNPTRKMLDHIAREVGLKKRVVQVWFQNTRARERK

For 47 variants, abundance fitness results are on record in the Human Domainome abundance scans (Beltran et al. 2025).

± gives the uncertainty stated by the source.

Variants of B1 are the subject of the data set. The experiment in a line: abundance fitness (aPCA) (normalised: wild type 0, dead -1); higher = more abundant; growth selection in yeast, the domain comes from the species named. Conditions: Homo sapiens.
Consider RLRTTITPQQLEILYEKYLLDSNPTRKMLDHIAREVGLKKRVVQVWFQNTRARERK, for which the abundance fitness is -0.152 ± 0.08.
For RLRTTITPGQLEILYEKYLLDSNPTRKMLDHIAREVGLKKRVVQVWFQNTRARERK, the abundance fitness was -0.159 ± 0.051.
As to RLRTTITPSQLEILYEKYLLDSNPTRKMLDHIAREVGLKKRVVQVWFQNTRARERK, the abundance fitness was -0.173 ± 0.057.
For the variant RLRTTITPRQLEILYEKYLLDSNPTRKMLDHIAREVGLKKRVVQVWFQNTRARERK, the abundance fitness was -0.005 ± 0.054.
The result for RLRTTITPPQLEILYEKYLLDSNPTRKMLDHIAREVGLKKRVVQVWFQNTRARERK reads -0.178 ± 0.057.
The result for RLRTTITPMQLEILYEKYLLDSNPTRKMLDHIAREVGLKKRVVQVWFQNTRARERK reads -0.171 ± 0.059; that for RLRTTITPFQLEILYEKYLLDSNPTRKMLDHIAREVGLKKRVVQVWFQNTRARERK, -0.399 ± 0.079; that for RLRTTITPYQLEILYEKYLLDSNPTRKMLDHIAREVGLKKRVVQVWFQNTRARERK, -0.297 ± 0.055.
The result for RLRTTITPDQLEILYEKYLLDSNPTRKMLDHIAREVGLKKRVVQVWFQNTRARERK reads 0.038 ± 0.085.
Take RLRTTITPNQLEILYEKYLLDSNPTRKMLDHIAREVGLKKRVVQVWFQNTRARERK: the abundance fitness is -0.141 ± 0.054.
The result for RLRTTITPAQLEILYEKYLLDSNPTRKMLDHIAREVGLKKRVVQVWFQNTRARERK reads -0.069 ± 0.051; that for RLRTTITPLQLEILYEKYLLDSNPTRKMLDHIAREVGLKKRVVQVWFQNTRARERK, -0.202 ± 0.057; that for RLRTTITPCQLEILYEKYLLDSNPTRKMLDHIAREVGLKKRVVQVWFQNTRARERK, -0.417 ± 0.063.
The result for RLRTTITPEFLEILYEKYLLDSNPTRKMLDHIAREVGLKKRVVQVWFQNTRARERK reads -0.941 ± 0.24; that for RLRTTITPEILEILYEKYLLDSNPTRKMLDHIAREVGLKKRVVQVWFQNTRARERK, -0.086 ± 0.22; that for RLRTTITPEPLEILYEKYLLDSNPTRKMLDHIAREVGLKKRVVQVWFQNTRARERK, -0.869 ± 0.15.
To RLRTTITPETLEILYEKYLLDSNPTRKMLDHIAREVGLKKRVVQVWFQNTRARERK belongs -0.587 ± 0.15.
RLRTTITPENLEILYEKYLLDSNPTRKMLDHIAREVGLKKRVVQVWFQNTRARERK: the abundance fitness was -0.651 ± 0.35.
With RLRTTITPEDLEILYEKYLLDSNPTRKMLDHIAREVGLKKRVVQVWFQNTRARERK, the abundance fitness is 0.18 ± 0.12.
As for RLRTTITPEELEILYEKYLLDSNPTRKMLDHIAREVGLKKRVVQVWFQNTRARERK, the abundance fitness is -0.641 ± 0.13.
To RLRTTITPECLEILYEKYLLDSNPTRKMLDHIAREVGLKKRVVQVWFQNTRARERK belongs -0.847 ± 0.2.
To RLRTTITPEGLEILYEKYLLDSNPTRKMLDHIAREVGLKKRVVQVWFQNTRARERK belongs -0.695 ± 0.089; to RLRTTITPEWLEILYEKYLLDSNPTRKMLDHIAREVGLKKRVVQVWFQNTRARERK, -0.695 ± 0.068; to RLRTTITPEHLEILYEKYLLDSNPTRKMLDHIAREVGLKKRVVQVWFQNTRARERK, -0.466 ± 0.071.
To RLRTTITPESLEILYEKYLLDSNPTRKMLDHIAREVGLKKRVVQVWFQNTRARERK belongs -0.603 ± 0.12; to RLRTTITPEKLEILYEKYLLDSNPTRKMLDHIAREVGLKKRVVQVWFQNTRARERK, -0.524 ± 0.11.
With RLRTTITPEYLEILYEKYLLDSNPTRKMLDHIAREVGLKKRVVQVWFQNTRARERK, the abundance fitness was -0.856 ± 0.32.
To RLRTTITPEVLEILYEKYLLDSNPTRKMLDHIAREVGLKKRVVQVWFQNTRARERK belongs -0.283 ± 0.058; to RLRTTITPEMLEILYEKYLLDSNPTRKMLDHIAREVGLKKRVVQVWFQNTRARERK, -0.326 ± 0.059.
The result for RLRTTITVEQLEILYEKYLLDSNPTRKMLDHIAREVGLKKRVVQVWFQNTRARERK reads 0.168 ± 0.099; that for RLRTTITWEQLEILYEKYLLDSNPTRKMLDHIAREVGLKKRVVQVWFQNTRARERK, -0.177 ± 0.11; that for RLRTTITEEQLEILYEKYLLDSNPTRKMLDHIAREVGLKKRVVQVWFQNTRARERK, 0.197 ± 0.12.
To RLRTTITSEQLEILYEKYLLDSNPTRKMLDHIAREVGLKKRVVQVWFQNTRARERK belongs -0.413 ± 0.15; to RLRTTITKEQLEILYEKYLLDSNPTRKMLDHIAREVGLKKRVVQVWFQNTRARERK, -0.272 ± 0.085.
RLRTTITHEQLEILYEKYLLDSNPTRKMLDHIAREVGLKKRVVQVWFQNTRARERK: the abundance fitness is -0.422 ± 0.42.
RLRTTITLEQLEILYEKYLLDSNPTRKMLDHIAREVGLKKRVVQVWFQNTRARERK: the abundance fitness turned out to be 0.167 ± 0.068.
To RLRTTITCEQLEILYEKYLLDSNPTRKMLDHIAREVGLKKRVVQVWFQNTRARERK belongs -0.54 ± 0.25; to RLRTTITREQLEILYEKYLLDSNPTRKMLDHIAREVGLKKRVVQVWFQNTRARERK, -0.254 ± 0.091.
The result for RLRTTITIEQLEILYEKYLLDSNPTRKMLDHIAREVGLKKRVVQVWFQNTRARERK reads 0.043 ± 0.22; that for RLRTTITGEQLEILYEKYLLDSNPTRKMLDHIAREVGLKKRVVQVWFQNTRARERK, -0.504 ± 0.11.
To RLRTTITFEQLEILYEKYLLDSNPTRKMLDHIAREVGLKKRVVQVWFQNTRARERK belongs -0.038 ± 0.17.
With RLRTTITAEQLEILYEKYLLDSNPTRKMLDHIAREVGLKKRVVQVWFQNTRARERK, the abundance fitness was 0.076 ± 0.065.
The result for RLRTTITYEQLEILYEKYLLDSNPTRKMLDHIAREVGLKKRVVQVWFQNTRARERK reads -0.643 ± 0.38; that for RLRTTITTEQLEILYEKYLLDSNPTRKMLDHIAREVGLKKRVVQVWFQNTRARERK, -0.452 ± 0.13; that for RLRTTITDEQLEILYEKYLLDSNPTRKMLDHIAREVGLKKRVVQVWFQNTRARERK, -0.107 ± 0.075.
To RLRTTITQEQLEILYEKYLLDSNPTRKMLDHIAREVGLKKRVVQVWFQNTRARERK belongs -0.232 ± 0.19; to RLRTTITMEQLEILYEKYLLDSNPTRKMLDHIAREVGLKKRVVQVWFQNTRARERK, -0.329 ± 0.2.
